The labels stand for the following.
B1: Hammerhead Ribozyme (parent)
chain: ACCGGAUGUGCUUUCCGGUCUGAUGAGUCCGUGAGGACGAAACAG

Consider 167 variants from the RNAGym collection of RNA variant scans (doi:10.7554/elife.80360).

Variants of B1 are the subject of this data set. The data set is described as follows: self-cleavage, relative activity (ratio to wild type); higher = more cleavage; co-transcriptional.
On to U12C, for which the self-cleavage amounted to 1.05. To U12A belongs 1.05. The result for U12G reads 0.976; that for U12G C38U, 1.08. To U12G C38A belongs 0.711; to U12G C38G, 0.813.

Consider U12A U28C, for which the self-cleavage was found to be 1.1. With U12A U28A, the self-cleavage came to 0.873. To U12A U28G belongs 0.92. Turning to U12A G27A, the self-cleavage was 0.77. As for U12A G27U, the self-cleavage amounted to 0.412.

Consider U12A G27C, for which the self-cleavage turned out to be 0.663. For U12G C20A, the self-cleavage came out at 0.332. Take U12G C20U: the self-cleavage was found to be 0.667. To U12G C20G belongs 0.32. In the case of U12G C29A, the self-cleavage is 0.643. In the case of U12G C29G, the self-cleavage was 0.736.

U12G C29U: the self-cleavage was determined as 0.541. The result for U12G C15A reads 1.09; that for U12G C15G, 0.819; that for U12G C15U, 0.823.

With U12C C43A, the self-cleavage was 0.278.

Regarding U12C C43U, the self-cleavage amounted to 0.486. To U12C C43G belongs 0.305; to U12A U14A, 0.798; to U12A U14G, 0.565. With U12A U14C, the self-cleavage amounted to 0.946. The result for U12C A42G reads 0.255; that for U12C A42U, 0.364; that for U12C A42C, 0.32.

With U12A G36A, the self-cleavage is 0.571.

Turning to U12A G36C, the self-cleavage is 0.758. U12A G36U: the self-cleavage was determined as 0.596. Regarding U12G U14C, the self-cleavage is 0.677. The result for U12G U14A reads 0.832; that for U12G U14G, 0.961; that for U12C U14A, 0.832. On to U12C U14G, for which the self-cleavage turned out to be 0.902. To U12C U14C belongs 0.83; to C11U U14A, 0.998; to C11U U14G, 0.765.

C11U U14C: the self-cleavage was 0.771. Turning to U12C G25A, the self-cleavage amounted to 0.352. For the variant U12C G25C, the self-cleavage amounted to 0.354. To U12C G25U belongs 0.277; to U12G C16A, 1.18; to U12G C16G, 0.714.

With U12G C16U, the self-cleavage came out at 0.968. To U12G G18U belongs 0.998; to U12G G18C, 0.61; to U12G G18A, 0.583. As to U12G U13C, the self-cleavage turned out to be 0.879. The result for U12G U13A reads 1.25; that for U12G U13G, 0.848; that for U12C C29U, 0.912. To U12C C29G belongs 0.599; to U12C C29A, 0.589; to U12G G39C, 0.424. The result for U12G G39U reads 0.319; that for U12G G39A, 0.4. For U12A U32A, the self-cleavage came to 0.698. Consider U12A U32G, for which the self-cleavage is 0.878. The result for U12A U32C reads 1.14. For the variant C11U U24G, the self-cleavage was determined as 1.02. To C11U U24C belongs 1.08. For C11U U24A, the self-cleavage worked out at 1.2. To U12G A37U belongs 0.438.

As to U12G A37C, the self-cleavage turned out to be 0.88.

In the case of U12G A37G, the self-cleavage worked out at 1.02. In the case of U12A U24G, the self-cleavage is 1.23. In the case of U12A U24A, the self-cleavage worked out at 0.937. The result for U12A U24C reads 0.727; that for U12C A37G, 0.915.

With U12C A37C, the self-cleavage turned out to be 0.573.

For the variant U12C A37U, the self-cleavage came to 0.727. For U13A A37C, the self-cleavage came to 1.21.

In the case of U12C U21C, the self-cleavage was found to be 0.792. The result for U12C U21A reads 0.471; that for U12C U21G, 0.609. For the variant U12C G39C, the self-cleavage is 0.327. In the case of U12C G39U, the self-cleavage was 0.317. With U12C G39A, the self-cleavage was 0.403.

With C11U U32A, the self-cleavage was 0.889. As for C11U U32G, the self-cleavage is 0.799. As for C11U U32C, the self-cleavage came to 0.964. To U12C C16G belongs 0.652; to U12C C16A, 0.908. The result for U12C C16U reads 0.878. On to U12A C15U, for which the self-cleavage turned out to be 0.668. The result for U12A C15G reads 0.85; that for U12A C15A, 0.979; that for U12C U24A, 1.04. To U12C U24C belongs 1.01.

U12C U24G: the self-cleavage worked out at 1.13. The result for U12C A44G reads 1.6. With U12C A44U, the self-cleavage came to 0.725. To U12C A44C belongs 0.611. The result for U12G A26G reads 0.346; that for U12G A26C, 0.475; that for U12G A26U, 0.708. To U12A G25A belongs 0.303.

U12A G25C: the self-cleavage came to 0.224. To U12A G25U belongs 0.331. To U12A U13G belongs 0.762; to U12A U13C, 1.05. As for U12A U13A, the self-cleavage was 1.23. The result for U12A G35A reads 0.724. With U12A G35U, the self-cleavage is 0.629. Consider U12A G35C, for which the self-cleavage amounted to 0.653.

Take U13A: the self-cleavage came to 1.31. Take U12G G33A: the self-cleavage worked out at 1.02.

Take U12G G33U: the self-cleavage amounted to 1.2. Regarding U12G G33C, the self-cleavage was determined as 0.972. The result for U12A A26U reads 0.587; that for U12A A26C, 0.429; that for U12A A26G, 0.424. As for U12A U19A, the self-cleavage turned out to be 0.419. As to U12A U19G, the self-cleavage was found to be 0.431. To U12A U19C belongs 0.366.

Regarding U12G A42G, the self-cleavage came to 0.356. Regarding U12G A42U, the self-cleavage is 0.321. For U12G A42C, the self-cleavage came to 0.239. Consider U12G A34U, for which the self-cleavage is 0.897. The result for U12G A34C reads 0.841. To U12G A34G belongs 0.909. The result for U12C A40C reads 0.531.

Consider U12C A40G, for which the self-cleavage was determined as 0.329. To U12C A40U belongs 0.379; to U12C G17U, 0.612; to U12C G17A, 0.79. The result for U12C G17C reads 0.446; that for U12A C29G, 0.721; that for U12A C29A, 0.634. Turning to U12A C29U, the self-cleavage came out at 0.881. For the variant C11U U28A, the self-cleavage turned out to be 0.768. As for C11U U28G, the self-cleavage was 0.703. The result for C11U U28C reads 0.954; that for U12A G18C, 0.565. To U12A G18A belongs 0.726. The result for U12A G18U reads 0.888; that for U12G G45U, 0.716. Take U12G G45C: the self-cleavage is 0.676.

For U12G G45A, the self-cleavage was determined as 0.719. On to C11U U19A, for which the self-cleavage was 0.32. In the case of C11U U19C, the self-cleavage was determined as 0.484. On to C11U U19G, for which the self-cleavage was found to be 0.329. In the case of U12G C30A, the self-cleavage was found to be 0.795. To U12G C30G belongs 0.706; to U12G C30U, 0.983; to U12A A40G, 0.315. With U12A A40C, the self-cleavage turned out to be 0.556. To U12A A40U belongs 0.32; to U12A C38U, 0.87. To U12A C38A belongs 0.807. Take U12A C38G: the self-cleavage came out at 0.719.

Take U12A A42G: the self-cleavage was found to be 0.252. On to U12A A42U, for which the self-cleavage turned out to be 0.313. On to U12A A42C, for which the self-cleavage is 0.359. To U12A G22C belongs 0.236; to U12A G22U, 0.328; to U12A G22A, 0.261. The result for U12G C43A reads 0.362; that for U12G C43U, 0.43; that for U12G C43G, 0.181. Turning to U12C G31A, the self-cleavage is 0.871.

As for U12C G31U, the self-cleavage came to 1. As to U12C G31C, the self-cleavage amounted to 0.913.
